According to patent US7202329 (MYRIAD GENETICS, dated 2007):

T1: Protein kinase C and casein kinase substrate (PACSIN2) (aa 174-367) (UniProt Q9UNF0 174-367)
T1 construct: range 174-367
T1 sequence (looked up): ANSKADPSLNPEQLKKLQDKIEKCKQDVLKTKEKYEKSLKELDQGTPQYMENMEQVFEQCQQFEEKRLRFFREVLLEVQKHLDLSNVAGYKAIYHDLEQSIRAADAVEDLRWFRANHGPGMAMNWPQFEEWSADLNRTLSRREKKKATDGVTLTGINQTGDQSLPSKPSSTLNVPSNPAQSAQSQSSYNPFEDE

T2: Death associated protein 5 (DAP5) (aa 16-157) (UniProt P78344 16-157)
T2 construct: range 16-157
T2 sequence (looked up): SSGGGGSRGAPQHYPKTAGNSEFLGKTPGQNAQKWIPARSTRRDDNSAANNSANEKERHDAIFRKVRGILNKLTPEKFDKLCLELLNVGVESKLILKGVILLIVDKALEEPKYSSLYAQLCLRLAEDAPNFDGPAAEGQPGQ

T3: hypothetical protein FLJ10540 (aa 1-140) (UniProt Q53EZ4 1-140)
T3 construct: range 1-140
T3 sequence (looked up): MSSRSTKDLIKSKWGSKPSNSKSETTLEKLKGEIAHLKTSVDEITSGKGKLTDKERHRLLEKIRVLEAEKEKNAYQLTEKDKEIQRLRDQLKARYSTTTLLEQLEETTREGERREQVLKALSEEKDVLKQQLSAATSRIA

T4: Cytoplasmic linker 2 (CYLN2) (aa 607-947) (UniProt Q9UDT6 607-947)
T4 construct: also called CLIP-115
T4 sequence (looked up): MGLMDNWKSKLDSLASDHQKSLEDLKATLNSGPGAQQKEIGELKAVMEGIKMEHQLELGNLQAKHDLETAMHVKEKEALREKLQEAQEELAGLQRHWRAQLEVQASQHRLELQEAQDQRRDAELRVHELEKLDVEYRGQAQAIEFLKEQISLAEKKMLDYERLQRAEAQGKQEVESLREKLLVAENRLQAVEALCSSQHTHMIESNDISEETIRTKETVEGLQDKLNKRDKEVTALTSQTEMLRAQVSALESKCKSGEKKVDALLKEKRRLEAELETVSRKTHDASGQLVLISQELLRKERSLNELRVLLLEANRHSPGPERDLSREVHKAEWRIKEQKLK

T5: Golgi autoantigen (Golgin-84) (aa 198-501) (UniProt Q8TBA6 198-501)
T5 construct: range 198-501
T5 sequence (looked up): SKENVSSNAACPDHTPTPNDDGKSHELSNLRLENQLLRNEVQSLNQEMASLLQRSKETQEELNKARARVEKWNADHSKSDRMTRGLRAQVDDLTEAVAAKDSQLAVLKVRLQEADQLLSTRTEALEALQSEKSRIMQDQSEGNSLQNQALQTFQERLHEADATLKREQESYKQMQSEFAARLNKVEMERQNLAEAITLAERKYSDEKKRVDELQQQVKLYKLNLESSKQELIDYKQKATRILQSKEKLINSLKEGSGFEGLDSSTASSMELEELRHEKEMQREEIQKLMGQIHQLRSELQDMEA

T6: VPS28 protein (aa 9-211) (human, UniProt Q9UK41 9-211)
T6 construct: range 9-211
T6 sequence (looked up): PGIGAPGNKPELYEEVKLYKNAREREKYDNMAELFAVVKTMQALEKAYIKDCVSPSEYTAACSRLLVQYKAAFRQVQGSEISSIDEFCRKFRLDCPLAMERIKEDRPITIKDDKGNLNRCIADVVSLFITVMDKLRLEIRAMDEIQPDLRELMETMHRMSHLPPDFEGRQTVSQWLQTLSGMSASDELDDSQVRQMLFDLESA

B1: Tsg101 (aa 265-391) (other, human, UniProt Q99816 265-390, looked up)
chain: KGHQKLEEMVTRLDQEVAEVDKNIELLKKKDEELSSALEKMENQSENNDIDEVIIPTAPLYKQILNLYAEENAIEDTIFYLGEALRRGVIDLDVFLKHVRLLSRKQFQLRALMQKARKTAGLSDLY
notes: range 265-391
B2: VPS28 protein (aa 27-221) (other, human, UniProt Q9UK41 27-221, looked up)
chain: YKNAREREKYDNMAELFAVVKTMQALEKAYIKDCVSPSEYTAACSRLLVQYKAAFRQVQGSEISSIDEFCRKFRLDCPLAMERIKEDRPITIKDDKGNLNRCIADVVSLFITVMDKLRLEIRAMDEIQPDLRELMETMHRMSHLPPDFEGRQTVSQWLQTLSGMSASDELDDSQVRQMLFDLESAYNAFNRFLHA
B3: Tsg101 (aa 140-270) (other, human, UniProt Q99816 140-270, looked up)
chain: PVFSRPISASYPPYQATGPPNTSYMPGMPGGISPYPSGYPPNPSGYPGCPYPPGGPYPATTSSQYPSQPPVTTVGPSRDGTISEDTIRASLISAVSDKLRWRMKEEMDRAQAELNALKRTEEDLKKGHQKL
notes: range 140-270
B4: Tsg101 (aa 231-391) (other, human, UniProt Q99816 231-390, looked up)
chain: ISAVSDKLRWRMKEEMDRAQAELNALKRTEEDLKKGHQKLEEMVTRLDQEVAEVDKNIELLKKKDEELSSALEKMENQSENNDIDEVIIPTAPLYKQILNLYAEENAIEDTIFYLGEALRRGVIDLDVFLKHVRLLSRKQFQLRALMQKARKTAGLSDLY
B5: Tsg101 (aa 147-391) (other, human, UniProt Q99816 147-390, looked up)
chain: SASYPPYQATGPPNTSYMPGMPGGISPYPSGYPPNPSGYPGCPYPPGGPYPATTSSQYPSQPPVTTVGPSRDGTISEDTIRASLISAVSDKLRWRMKEEMDRAQAELNALKRTEEDLKKGHQKLEEMVTRLDQEVAEVDKNIELLKKKDEELSSALEKMENQSENNDIDEVIIPTAPLYKQILNLYAEENAIEDTIFYLGEALRRGVIDLDVFLKHVRLLSRKQFQLRALMQKARKTAGLSDLY
notes: range 147-391
B6: Tsg101 (aa 317-391) (other, human, UniProt Q99816 317-390, looked up)
chain: VIIPTAPLYKQILNLYAEENAIEDTIFYLGEALRRGVIDLDVFLKHVRLLSRKQFQLRALMQKARKTAGLSDLY
notes: range 317-391
B7: VPS28 protein (aa 10-221) (other, human, UniProt Q9UK41 10-221, looked up)
chain: GIGAPGNKPELYEEVKLYKNAREREKYDNMAELFAVVKTMQALEKAYIKDCVSPSEYTAACSRLLVQYKAAFRQVQGSEISSIDEFCRKFRLDCPLAMERIKEDRPITIKDDKGNLNRCIADVVSLFITVMDKLRLEIRAMDEIQPDLRELMETMHRMSHLPPDFEGRQTVSQWLQTLSGMSASDELDDSQVRQMLFDLESAYNAFNRFLHA

Assays:
Assay in all cases: yeast two-hybrid
[1] = biological target: T1, Protein kinase C and casein kinase …
[2] = biological target: B7
[3] = biological target: T7, Chromosome-associated polypeptide HCAP (aa 119-353) (human, UniProt Q9UQE7 119-353)
T7 construct: range 119-353

[4] = biological target: T2, Death associated protein 5 (DAP5) (aa …)
[5] = biological target: B5
[6] = biological target: T3, hypothetical protein FLJ10540 (aa 1-140)
[7] = biological target: T4, Cytoplasmic linker 2 (CYLN2) (aa …)
[8] = biological target: T5, Golgi autoantigen (Golgin-84) (aa …)
[9] = biological target: T6, VPS28 protein (aa 9-211)

T7 sequence (Q9UQE7 119-353 limits assumed): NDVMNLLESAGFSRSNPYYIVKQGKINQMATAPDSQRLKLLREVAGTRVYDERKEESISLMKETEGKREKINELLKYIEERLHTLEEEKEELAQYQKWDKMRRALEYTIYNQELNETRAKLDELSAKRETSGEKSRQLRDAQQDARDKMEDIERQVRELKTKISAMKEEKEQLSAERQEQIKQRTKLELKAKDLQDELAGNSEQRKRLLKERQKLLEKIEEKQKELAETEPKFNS

B1: binds [1]; binds [2]; binds [3]. B1: binds [4].

B2: binds [5].

B3: binds [6].

B4: binds [7]; binds [2]; binds [8]. B4: binds [9].

B5: binds [8].

B6: binds [2].

B7: binds [5].
